# Reference: PMC2192707
# Target: T1, calnexin (UniProt P35564)
# T1 sequence: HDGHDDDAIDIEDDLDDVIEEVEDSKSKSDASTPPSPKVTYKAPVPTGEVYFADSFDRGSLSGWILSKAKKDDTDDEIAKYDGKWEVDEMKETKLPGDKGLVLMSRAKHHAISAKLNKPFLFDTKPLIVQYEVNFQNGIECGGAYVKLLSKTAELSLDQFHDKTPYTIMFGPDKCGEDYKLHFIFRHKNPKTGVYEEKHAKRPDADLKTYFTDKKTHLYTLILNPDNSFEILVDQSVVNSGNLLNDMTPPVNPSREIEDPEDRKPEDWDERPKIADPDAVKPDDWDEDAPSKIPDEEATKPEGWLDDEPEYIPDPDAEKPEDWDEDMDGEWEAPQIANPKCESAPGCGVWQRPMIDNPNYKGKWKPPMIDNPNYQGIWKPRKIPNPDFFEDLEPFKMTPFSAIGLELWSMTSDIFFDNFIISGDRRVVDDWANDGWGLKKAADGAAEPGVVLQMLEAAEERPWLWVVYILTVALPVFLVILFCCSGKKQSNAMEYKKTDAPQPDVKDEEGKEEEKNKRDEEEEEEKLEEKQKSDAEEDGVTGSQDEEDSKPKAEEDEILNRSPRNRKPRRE
# Settings: co-IP
substance,measurement,value
H-2Db class I heavy chain (endogenous in EL4),percent of heterodimers associated with calnexin,85% ofD b heterodimers
H-2Kb class I heavy chain,percent of heterodimers associated with calnexin,~45% ofK b heterodimers
